B1: Swi5-Sfr1 complex (wild type, full-length Sfr1) (complex, S. pombe)
chain 1: MEKSQLESRVHLLEQQKEQLESSLQDALAKLKNRDAKQTVQKHIDLLHTYNEIRDIALGMIGKVAEHEKCTSVELFDRFGVNGSE
chain 2: MSQTINSELNENATSQCKEDLKVSLSESDLRDSQGQLGIENPPKCNNSGNHSDNLGFIEQSETVHPENEKALTPDLRDTKIHTSLPITTPFSKKRAREAKNILLKPFKSPLRQTASPQVADTNLKPSLAVTNLNSDETNTSSEPVTSPLRTTPNSIKRQKRLFKSPISNCLNPKSDPEITQLLSRRLKLEKEVRNLQEQLITAETARKVEAKNEDKDLQTLIQKWKNAAQQAAEVLFKPMAERIRLAGGVTQSFRIEEGENKGQIQEVRTEFTMSMFLNQFGVPVHLMSFDEENGDWKS
B2: Rad51 (S. pombe), purified (natural protein, UniProt P36601 1-365, looked up)
chain: MADTEVEMQVSAADTNNNENGQAQSNYEYDVNVQDEEDEAAAGPMPLQMLEGNGITASDIKKIHEAGYYTVESIAYTPKRQLLLIKGISEAKADKLLGEASKLVPMGFTTATEYHIRRSELITITTGSKQLDTLLQGGVETGSITELFGEFRTGKSQICHTLAVTCQLPIDMGGGEGKCLYIDTEGTFRPVRLLAVADRYGLNGEEVLDNVAYARAYNADHQLELLQQAANMMSESRFSLLVVDSCTALYRTDFSGRGELSARQMHLARFMRTLQRLADEFGIAVVITNQVVAQVDGISFNPDPKKPIGGNILAHSSTTRLSLRKGRGEQRICKIYDSPCLPESEAIFAINSDGVGDPKEIIAPV

In data set [1] the target is B2. The data set can be described thus: cell-based or functional assay.
The data set “SEC” concerns the molecule itself. In words: SEC.
Data set [2] addresses B1. In words: pull-down.

With B1, the “Rad51-dependent ATP turnover, Swi5-Sfr1:Rad51 ratio of 1:20” value in data set [1] was found to be 1.85 fold.

As for B2, the binding result (in the data set “SEC”; in data set [2]) was “binds” in each case.

Values taken from PMC7093153 (eLife, 2020).
